Data: US20220281997A1 (published 2022)

Tests used:
Assay in all cases: SPR
AS675 VHH = target: AS675 VHH
AS325 VHH = target: AS325 VHH
AS656 VHH = target: AS656 VHH
AS154 VHH = target: AS154 VHH
AS519 VHH = target: AS519 VHH
AS588 VHH = target: AS588 VHH
AS988 VHH = target: AS988 VHH
[1] = target: His-tag camel-derived nanobody AS718 VHH-His
AS200 VHH = target: AS200 VHH
AS673 VHH = target: AS673 VHH
Sequence of AS673 VHH (VHH, as listed by the source): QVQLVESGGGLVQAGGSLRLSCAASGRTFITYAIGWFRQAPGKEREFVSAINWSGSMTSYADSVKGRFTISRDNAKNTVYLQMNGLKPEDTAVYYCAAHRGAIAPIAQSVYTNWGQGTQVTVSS

Sequence of AS200 VHH (VHH, as listed by the source): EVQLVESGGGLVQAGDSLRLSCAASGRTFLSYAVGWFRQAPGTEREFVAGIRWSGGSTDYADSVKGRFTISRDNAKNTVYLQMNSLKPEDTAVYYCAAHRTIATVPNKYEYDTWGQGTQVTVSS
Sequence of AS154 VHH (VHH, as listed by the source): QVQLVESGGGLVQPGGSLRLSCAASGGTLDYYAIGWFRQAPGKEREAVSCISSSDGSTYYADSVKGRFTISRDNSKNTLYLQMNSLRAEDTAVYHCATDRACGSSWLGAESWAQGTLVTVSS
Sequence of AS656 VHH (VHH, as listed by the source): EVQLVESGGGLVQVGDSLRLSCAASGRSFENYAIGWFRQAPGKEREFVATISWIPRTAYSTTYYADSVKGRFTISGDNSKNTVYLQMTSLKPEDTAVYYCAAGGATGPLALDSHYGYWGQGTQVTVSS
Sequence of AS988 VHH (VHH, as listed by the source): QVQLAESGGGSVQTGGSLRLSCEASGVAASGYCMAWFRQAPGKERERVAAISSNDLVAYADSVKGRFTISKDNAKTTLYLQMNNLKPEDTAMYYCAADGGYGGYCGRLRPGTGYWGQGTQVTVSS
Sequence of AS519 VHH (VHH, as listed by the source): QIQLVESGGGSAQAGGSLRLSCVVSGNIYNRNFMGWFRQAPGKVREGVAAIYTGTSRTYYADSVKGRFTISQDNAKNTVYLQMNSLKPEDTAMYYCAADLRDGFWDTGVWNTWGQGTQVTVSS
Sequence of AS325 VHH (VHH, as listed by the source): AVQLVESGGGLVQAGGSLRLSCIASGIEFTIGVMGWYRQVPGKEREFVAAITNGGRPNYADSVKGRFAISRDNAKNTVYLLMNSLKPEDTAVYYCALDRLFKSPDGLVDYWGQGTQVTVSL
Sequence of AS588 VHH (VHH, as listed by the source): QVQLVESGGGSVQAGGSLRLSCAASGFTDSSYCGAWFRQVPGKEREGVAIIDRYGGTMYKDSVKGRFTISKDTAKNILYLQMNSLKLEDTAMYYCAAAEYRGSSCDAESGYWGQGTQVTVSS
Sequence of His-tag camel-derived nanobody AS718 VHH-His (VHH, as listed by the source): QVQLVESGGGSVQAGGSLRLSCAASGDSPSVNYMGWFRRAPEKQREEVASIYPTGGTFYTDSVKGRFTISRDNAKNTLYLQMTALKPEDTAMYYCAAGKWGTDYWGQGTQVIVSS
Sequence of AS675 VHH (VHH, as listed by the source): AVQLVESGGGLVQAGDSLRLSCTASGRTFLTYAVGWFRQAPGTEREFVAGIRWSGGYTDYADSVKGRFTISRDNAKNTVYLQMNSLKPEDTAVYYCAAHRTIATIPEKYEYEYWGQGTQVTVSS

Kd (AS675 VHH): 34.5 pM
Kd (AS325 VHH): 4.04 pM
Kd (AS656 VHH): 1.34 pM
Kd (AS154 VHH): 402 pM
Kd (AS519 VHH): 1.66 pM
Kd (AS588 VHH): 7.09 pM
Kd (AS988 VHH): 7.08 pM
Kd [1]: 3.47 pM
Kd (AS200 VHH): 11.8 pM
Kd (AS673 VHH): 4.36 pM
B1: R166.C5 (antibody, V domains shown)
VH: QSVEESGGRLVTPGTPLTLTCTVSGFSLRNFAMSWVRQAPGKGLEWIGIIYSGGTRDYATWAKGRFTISKTSTTVDLKMTSPTTEDTATYFCARDRSPDYSAAFLLWGQGTLVTVSS
VL: IVMTQTPSSKSVPVGDTVTINCQASESVYSNNHLAWFQQKPGQPPKLLIYSASTLESGVPSRFKGSGSGTQFTLTISGVQCDDAATYYCAGYKSSDTDGTSFGGGTEVVVKG
